According to patent US20100278752A1 (RHODE ISLAND BOARD OF GOVERNORS FOR HIGHER EDUCATION, published 2010):

What was measured:
Cathepsin S = test: cell-based or functional assay
Cathepsin C = test: cell-based or functional assay
Cathepsin X/Z/P = Cathepsin X/Z/P (Homo sapiens (Human), UniProt Q9UBR2 62-303); test: cell-based or functional assay
Cathepsin V = test: cell-based or functional assay
Cathepsin L [1] = biological target: T1, Cathepsin L (Homo sapiens (Human), UniProt P07711 114-333); test: cell-based or functional assay
T1 sequence (P07711 114-333 limits assumed, form in doubt): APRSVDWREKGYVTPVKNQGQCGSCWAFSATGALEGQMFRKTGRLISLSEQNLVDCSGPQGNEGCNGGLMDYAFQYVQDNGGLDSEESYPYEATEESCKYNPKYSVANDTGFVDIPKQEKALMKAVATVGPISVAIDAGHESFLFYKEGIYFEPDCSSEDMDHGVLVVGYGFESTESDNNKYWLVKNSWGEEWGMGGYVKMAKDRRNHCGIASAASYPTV

Cathepsin L [2] = biological target: T1, Cathepsin L; test: enzyme kinetics for tight binding inhibition: Morrison's equation, Ki* plotted against substrate concentration, y intercept of the linear regression

Sequence of Cathepsin X/Z/P (Q9UBR2 62-303 limits assumed, form in doubt): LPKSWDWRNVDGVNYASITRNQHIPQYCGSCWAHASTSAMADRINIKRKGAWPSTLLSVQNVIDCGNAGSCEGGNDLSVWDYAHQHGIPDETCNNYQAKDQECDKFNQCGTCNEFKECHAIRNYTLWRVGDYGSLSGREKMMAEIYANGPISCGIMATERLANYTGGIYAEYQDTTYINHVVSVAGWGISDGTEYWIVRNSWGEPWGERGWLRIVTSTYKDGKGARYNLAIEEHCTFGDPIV

Binder | IC50 (inhibitor concentration at which 50% inhibition of enzymatic activity is achieved); 60 pM enzyme (Cathepsin S) [nM] | IC50 (inhibitor concentration at which 50% inhibition of enzymatic activity is achieved); 10 nM enzyme (Cathepsin C) [nM] | IC50 (inhibitor concentration at which 50% inhibition of enzymatic activity is achieved); 16 nM enzyme (Cathepsin X/Z/P) [nM] | IC50 (inhibitor concentration at which 50% inhibition of enzymatic activity is achieved); 1 nM enzyme (Cathepsin V) [nM] | IC50 (inhibitor concentration at which 50% inhibition of enzymatic activity is achieved); 20 pM enzyme (Cathepsin L [1]) [pM] | Ki (Cathepsin L [2]) [nM]
Sialostatin L (other) MTGVFGGYSERANHQANPEFLNLAHYATSTWSAQQPGKTHFDTVAEVVKVETQVVAGTNYRLTLKVAESTCELTSTYNKDTCLPKADAAHRTCTTVVFENLQGDKSVSPFECEAA | 0.7 | 52.2 | 937 | 24.1 | 126 | –
Sialostatin L2 (other, Recombinant protein overexpressed in bacteria; also called second salivary cystatin; novel cystatin) MELALRGGYRERSNQDDPEYLELAHYATSTWSAQQPGKTHFDTVVEVLKVETQTVAGTNYRLTLKVAESTCELTSTYNKDTCQANANAAQRTCTTVIYRNLQGEKSISSFECAAA | 378 | 740 | – | 28.8 | 70.9 | 0.0655
